Results taken from article PMC5085163.

Target: transducin-like enhancer of split 1 (TLE1) (human (endogenous in synovial sarcoma and control cell lines and tumor tissue)) (UniProt Q04724)
Experiment: proximity ligation; Duolink In Situ Red kit on cultured cells fixed with 3% formaldehyde and permeabilized with 0.1% Triton X-100; rabbit anti-SS18 and mouse anti-TLE1 primary antibodies overnight at 4°C; nuclear foci per nucleus; also done after HDAC inhibitors, SXT1596 and siRNA/shRNA against SS18-SSX

Sequence of UniProt Q04724 (Q04724 whole entry): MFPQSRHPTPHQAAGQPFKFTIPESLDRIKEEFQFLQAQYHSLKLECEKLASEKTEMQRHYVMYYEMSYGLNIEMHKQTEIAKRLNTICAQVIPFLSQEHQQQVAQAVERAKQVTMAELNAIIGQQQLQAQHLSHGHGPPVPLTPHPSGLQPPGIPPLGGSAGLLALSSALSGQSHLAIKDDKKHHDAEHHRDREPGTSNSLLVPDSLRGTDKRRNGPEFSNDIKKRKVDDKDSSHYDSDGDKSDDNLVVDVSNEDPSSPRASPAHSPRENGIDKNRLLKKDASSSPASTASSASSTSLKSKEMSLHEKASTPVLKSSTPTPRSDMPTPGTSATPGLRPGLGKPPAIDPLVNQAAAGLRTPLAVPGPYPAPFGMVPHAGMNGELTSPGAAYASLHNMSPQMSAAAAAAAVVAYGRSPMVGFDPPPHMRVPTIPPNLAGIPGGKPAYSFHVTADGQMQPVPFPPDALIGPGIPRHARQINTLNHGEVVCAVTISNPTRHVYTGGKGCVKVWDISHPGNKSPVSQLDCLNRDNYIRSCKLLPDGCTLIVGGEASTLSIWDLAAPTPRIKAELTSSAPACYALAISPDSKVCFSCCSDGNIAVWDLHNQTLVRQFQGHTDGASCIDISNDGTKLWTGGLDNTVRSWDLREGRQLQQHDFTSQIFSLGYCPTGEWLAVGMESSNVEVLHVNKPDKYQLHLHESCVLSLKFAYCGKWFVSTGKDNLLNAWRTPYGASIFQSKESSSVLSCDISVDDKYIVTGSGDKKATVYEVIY

Row | fold PLA signal over control cell lines [fold] | Substance
1 | > 10 | SS18-SSX1 fusion oncoprotein (natural protein)
2 | > 10 | SS18-SSX2 fusion oncoprotein (natural protein)
